Test results published in patent publication CN117843805A (BEILAI PHARMACEUTICAL CO LTD, dated 2024).

Assays:
[1] = molecular target: T1, Human IL-17A重组蛋白 (IL-17A-His) (human, UniProt Q16552 24-155, biotinylated (NHS-biotin) in the ELISA of paragraph 263); experiment: BLI (ForteBio OCTET R2), IL-17A-His on the sensor, antibody 50-3.13 nM, 25℃
T1 construct: also called IL-17A抗原蛋白; IL-17抗原
T1 sequence: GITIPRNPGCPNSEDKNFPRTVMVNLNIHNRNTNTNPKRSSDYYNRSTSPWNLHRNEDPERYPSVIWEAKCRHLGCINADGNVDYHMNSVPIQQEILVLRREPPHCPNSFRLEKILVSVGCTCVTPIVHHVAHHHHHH

[2] = molecular target: T1, Human IL-17A重组蛋白 (IL-17A-His); experiment: ELISA, antibody coated at 2 ug/mL, Biotin-IL-17A-His titrated from 10 ug/mL, HRP-Streptavidin
[3] = molecular target: T1, Human IL-17A重组蛋白 (IL-17A-His); experiment: cell-based or functional assay

B1: Ixekizumab (antibody, human IgG4 S228P, kappa, V domains shown)
VH: QVQLVQSGAEVKKPGSSVKVSCKASGYSFTDYHIHWVRQAPGQGLEWMGVINPMYGTTDYNQRFKGRVTITADESTSTAYMELSSLRSEDTAVYYCARYDYFTGTGVYWGQGTLVTVSS
VL: DIVMTQTPLSLSVTPGQPASISCRSSRSLVHSRGNTYLHWYLQKPGQSPQLLIYKVSNRFIGVPDRFSGSGSGTDFTLKISRVEAEDVGVYYCSQSTHLPFTFGQGTKLEIKR
notes: Made in house in 293F cells from synthesised variable regions cloned into hIgG4 and hIgKc vectors; Protein A purified; also called 阳性对照抗体Ixekizumab; 阳性抗体
Kd [1]: 391 pM | EC50 [2]: 10.1 µg/mL | IC50 of blocking Human IL-17A activation of 293F-IL-17RA-IL-17Rc-ACT1-NFκB-Luc (luciferase activity) [3]: 1.36 µg/mL
